B1: Frizzled3 (Fzd3): N42Q (protein)
parent chain: MAVSWIVFDLWLLTVFLGQIGGHSLFSCEPITLRMCQDLPYNTTFMPNLLNHYDQQTAALAMEPFHPMVNLDCSRDFRPFLCALYAPICMEYGRVTLPCRRLCQRAYSECSKLMEMFGVPWPEDMECSRFPDCDEPYPRLVDLNLVGDPTEGAPVAVQRDYGFWCPRELKIDPDLGYSFLHVRDCSPPCPNMYFRREELSFARYFIGLISIICLSATLFTFLTFLIDVTRFRYPERPIIFYAVCYMMVSLIFFIGFLLEDRVACNASSPAQYKASTVTQGSHNKACTMLFMVLYFFTMAGSVWWVILTITWFLAAVPKWGSEAIEKKALLFHASAWGIPGTLTIILLAMNKIEGDNISGVCFVGLYDVDALRYFVLAPLCLYVVVGVSLLLAGIISLNRVRIEIPLEKENQDKLVKFMIRIGVFSILYLVPLLVVIGCYFYEQAYRGIWETTWIQERCREYHIPCPYQVTQMSRPDLILFLMKYLMALIVGIPSIFWVGSKKTCFEWASFFHGRRKKEIVNESRQVLQEPDFAQSLLRDPNTPIIRKSRGTSTQGTSTHASSTQLAMVDDQRSKAGSVHSKVSSYHGSLHRSRDGRYTPCSYRGMEERLPHGSMSRLTDHSRHSSSHRLNEQSRHSSIRDLSNNPMTHITHGTSMNRVIEEDGTSA
B2: Frizzled3 (Fzd3): 2NQ (protein)
parent chain: B1 parent chain
B3: Frizzled3 (Fzd3): N356Q (protein)
parent chain: B1 parent chain

Assay: surface biotinylation, NeutrAvidin pull-down, immunoblot
Conditions: glycan lost; control: wild type

Protein | localisation_or_trafficking
B1 | decreases
B2 | changes
B3 | abolishes
